Results from the supplement of paper PMC9112550, “Optimization of the antimicrobial peptide Bac7 by deep mutational scanning” (BMC Biology, 2022).

System: Escherichia coli TOP10
Experiment: shrunken log2 fold change of peptide-encoding DNA abundance (4.5 h post-induction vs induction); higher = less antimicrobial activity (less host growth inhibition)
Settings: time post-induction: 4.5 h; library: site-saturation at positions 5, 18, 19, 20
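Also: peptides expressed intracellularly from a pBAD plasmid library in pooled LB shake-flask culture, induced with 0.3% L-arabinose, DNA abundance read by NGS, three biological replicates, DESeq2 with apeglm shrinkage.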

Sequence | shrunken log2 fold change
RRIRHRPPRLPRPRPRPDIKPRP | -0.559
RRIRMRPPRLPRPRPRPYCPPRP | -0.066
RRIRYRPPRLPRPRPRPPRRPRP | 0.261
RRIRWRPPRLPRPRPRPNSDPRP | -0.258
RRIRRRPPRLPRPRPRPSPHPRP | 0.334
RRIRWRPPRLPRPRPRPWSCPRP | -0.169
RRIRYRPPRLPRPRPRPALDPRP | -0.132
RRIRKRPPRLPRPRPRPVHGPRP | 0.0412
RRIRFRPPRLPRPRPRPWMRPRP | 0.495
RRIRTRPPRLPRPRPRPMPPPRP | 0.0692
RRIRERPPRLPRPRPRPRDDPRP | 0.0953
RRIRHRPPRLPRPRPRPHMTPRP | -0.0109
RRIRPRPPRLPRPRPRPVNFPRP | -0.59
RRIRPRPPRLPRPRPRPNSMPRP | -0.251
RRIRNRPPRLPRPRPRPSKHPRP | -0.545
RRIRVRPPRLPRPRPRPMTWPRP | -0.124
RRIRNRPPRLPRPRPRPLGAPRP | 0.413
RRIRRRPPRLPRPRPRPECNPRP | 0.791
RRIRLRPPRLPRPRPRPIIMPRP | -0.252
RRIRERPPRLPRPRPRPFSYPRP | -0.0589
RRIRPRPPRLPRPRPRPEWVPRP | 0.332
RRIRERPPRLPRPRPRPYTAPRP | -0.662
RRIRDRPPRLPRPRPRPWMRPRP | 0.013
RRIRTRPPRLPRPRPRPHKIPRP | -0.587
RRIRNRPPRLPRPRPRPDIFPRP | -0.172

Sequence | shrunken log2 fold change
RRIRWRPPRLPRPRPRPSEDPRP | 0.145
RRIRARPPRLPRPRPRPHFMPRP | 0.787
RRIRIRPPRLPRPRPRPLWAPRP | -0.174
RRIRMRPPRLPRPRPRPLRGPRP | 2.15
RRIRIRPPRLPRPRPRPPFRPRP | -0.0473
RRIRRRPPRLPRPRPRPWGYPRP | -0.275
RRIRKRPPRLPRPRPRPRYTPRP | -0.113
RRIRWRPPRLPRPRPRPCIFPRP | -0.683
RRIRLRPPRLPRPRPRPMGQPRP | 0.0212
RRIRGRPPRLPRPRPRPRHTPRP | 0.7
RRIRIRPPRLPRPRPRPPCDPRP | -0.48
RRIRRRPPRLPRPRPRPNNVPRP | -0.312
RRIRYRPPRLPRPRPRPVQRPRP | -0.0294
RRIRNRPPRLPRPRPRPPTWPRP | 0.434
RRIRERPPRLPRPRPRPALDPRP | -0.0626
RRIRYRPPRLPRPRPRPNKLPRP | -0.987
RRIRNRPPRLPRPRPRPEPYPRP | 0.0346
RRIRQRPPRLPRPRPRPVHYPRP | -0.0228
RRIRTRPPRLPRPRPRPNPIPRP | -0.157
RRIRQRPPRLPRPRPRPHIDPRP | -0.224
RRIRQRPPRLPRPRPRPGSEPRP | 0.0985
RRIRQRPPRLPRPRPRPWFKPRP | -0.183
RRIRYRPPRLPRPRPRPGGNPRP | -0.0562
RRIRTRPPRLPRPRPRPFCRPRP | -0.0976
RRIRMRPPRLPRPRPRPWHVPRP | -0.0444

Sequence | shrunken log2 fold change
RRIRFRPPRLPRPRPRPHYNPRP | -0.786
RRIRCRPPRLPRPRPRPNHQPRP | -0.421
RRIRDRPPRLPRPRPRPLEDPRP | -0.00783
RRIRTRPPRLPRPRPRPIMGPRP | -0.0135
RRIRTRPPRLPRPRPRPDCPPRP | -0.245
RRIRGRPPRLPRPRPRPYFQPRP | -0.161
RRIRERPPRLPRPRPRPDAVPRP | -0.0146
RRIRHRPPRLPRPRPRPPQKPRP | 0.0508
RRIRKRPPRLPRPRPRPSKQPRP | 0.292
RRIRYRPPRLPRPRPRPQGVPRP | -0.464
RRIRHRPPRLPRPRPRPCFNPRP | -0.588
RRIRTRPPRLPRPRPRPSFPPRP | -0.261
RRIRCRPPRLPRPRPRPGTSPRP | 0.0279
RRIRARPPRLPRPRPRPGERPRP | 0.56
RRIRSRPPRLPRPRPRPSSHPRP | -0.0982
RRIRYRPPRLPRPRPRPNVSPRP | -0.0178
RRIRWRPPRLPRPRPRPASPPRP | 0.131
RRIRTRPPRLPRPRPRPCGRPRP | 0.155
RRIRCRPPRLPRPRPRPGAQPRP | 0.312
RRIRRRPPRLPRPRPRPDVTPRP | -0.0312
RRIRQRPPRLPRPRPRPFPEPRP | -0.0157
RRIRSRPPRLPRPRPRPGENPRP | 0.894
RRIRPRPPRLPRPRPRPSAHPRP | -0.167
RRIRARPPRLPRPRPRPWQGPRP | 0.0405
RRIRERPPRLPRPRPRPDLQPRP | 0.00923

Sequence | shrunken log2 fold change
RRIRDRPPRLPRPRPRPAFTPRP | -0.155
RRIRMRPPRLPRPRPRPNVDPRP | 0.0854
RRIRHRPPRLPRPRPRPGNQPRP | 0.0401
RRIRRRPPRLPRPRPRPNSMPRP | -0.233
RRIRYRPPRLPRPRPRPHDFPRP | -0.167
RRIRKRPPRLPRPRPRPGQVPRP | 0.00902
RRIRKRPPRLPRPRPRPREWPRP | 1.77
RRIRARPPRLPRPRPRPWHHPRP | -0.168
RRIRIRPPRLPRPRPRPCTKPRP | -0.151
RRIRSRPPRLPRPRPRPWYTPRP | 0.0361
RRIRMRPPRLPRPRPRPPCDPRP | 0.506
RRIRIRPPRLPRPRPRPEWCPRP | 0.0249
RRIRMRPPRLPRPRPRPVIEPRP | -0.0535
RRIRFRPPRLPRPRPRPQLHPRP | 0.381
RRIRHRPPRLPRPRPRPHWYPRP | -0.347
RRIRMRPPRLPRPRPRPRRNPRP | 0.807
RRIRLRPPRLPRPRPRPYLEPRP | -0.169
RRIRFRPPRLPRPRPRPTVYPRP | -0.307
RRIRCRPPRLPRPRPRPKWSPRP | 0.0876
RRIRKRPPRLPRPRPRPQLHPRP | 0.0197
RRIRKRPPRLPRPRPRPLDHPRP | 0.118
RRIRIRPPRLPRPRPRPGYLPRP | 2.69
RRIRIRPPRLPRPRPRPIEDPRP | 0.0806
RRIRIRPPRLPRPRPRPNPSPRP | 0.0641
RRIRERPPRLPRPRPRPNYRPRP | -0.000813

Sequence | shrunken log2 fold change
RRIRLRPPRLPRPRPRPSMWPRP | 0.0718
RRIRGRPPRLPRPRPRPPDQPRP | 1.14
RRIRRRPPRLPRPRPRPLPVPRP | 0.373
RRIRVRPPRLPRPRPRPIFWPRP | 0.00106
RRIRRRPPRLPRPRPRPYKIPRP | -0.158
RRIRGRPPRLPRPRPRPTIIPRP | -0.026
RRIRFRPPRLPRPRPRPDVDPRP | 0.0167
RRIRVRPPRLPRPRPRPDKWPRP | -0.151
RRIRHRPPRLPRPRPRPDVSPRP | -0.198
RRIRGRPPRLPRPRPRPRWDPRP | 0.696
RRIRMRPPRLPRPRPRPARGPRP | 1.1
RRIRSRPPRLPRPRPRPLSAPRP | 0.234
RRIRGRPPRLPRPRPRPEMGPRP | 1.37
RRIRTRPPRLPRPRPRPVSGPRP | -0.0612
RRIRPRPPRLPRPRPRPEYTPRP | -0.0863
RRIRSRPPRLPRPRPRPMDAPRP | -0.0809
RRIRWRPPRLPRPRPRPPPFPRP | 0.22
RRIRRRPPRLPRPRPRPCTVPRP | -0.0302
RRIRARPPRLPRPRPRPAKIPRP | 0.321
RRIRVRPPRLPRPRPRPVRLPRP | 0.44
RRIRNRPPRLPRPRPRPWNQPRP | -0.0135
RRIRYRPPRLPRPRPRPWSYPRP | -0.23
RRIRTRPPRLPRPRPRPEPWPRP | 0.291
RRIRARPPRLPRPRPRPVEFPRP | 0.108
RRIRSRPPRLPRPRPRPQKWPRP | -0.0746

Sequence | shrunken log2 fold change
RRIRFRPPRLPRPRPRPTMKPRP | -0.178
RRIRERPPRLPRPRPRPPSDPRP | 0.0848
RRIRVRPPRLPRPRPRPSIRPRP | -0.285
RRIRERPPRLPRPRPRPIVWPRP | 0.0693
RRIRERPPRLPRPRPRPMLCPRP | 0.05
RRIRRRPPRLPRPRPRPETMPRP | -0.0309
RRIRDRPPRLPRPRPRPKMQPRP | 0.247
RRIRPRPPRLPRPRPRPYASPRP | -0.0775
RRIRWRPPRLPRPRPRPEIRPRP | 0.00534
RRIRTRPPRLPRPRPRPKEPPRP | -0.00172
RRIRIRPPRLPRPRPRPDLQPRP | -0.0567
RRIRMRPPRLPRPRPRPYFFPRP | -0.175
RRIRFRPPRLPRPRPRPSFKPRP | -0.683
RRIRWRPPRLPRPRPRPSIIPRP | -0.31
RRIRERPPRLPRPRPRPNRQPRP | 0.0895
RRIRPRPPRLPRPRPRPLFGPRP | 0.142
RRIRTRPPRLPRPRPRPGLSPRP | 0.0345
RRIRHRPPRLPRPRPRPVVPPRP | -0.0888
RRIRFRPPRLPRPRPRPMIIPRP | -0.871
RRIRWRPPRLPRPRPRPRFKPRP | 0.0187
RRIRCRPPRLPRPRPRPKGKPRP | 0.328
RRIRDRPPRLPRPRPRPFHQPRP | -0.0388
RRIRNRPPRLPRPRPRPNRKPRP | 2.2
RRIRTRPPRLPRPRPRPIQIPRP | 0.0193
RRIRARPPRLPRPRPRPAKHPRP | 0.558
